Columns and labels:
[1] = BpsA indigoidine synthesis kinetics, L-Gln as variable substrate; format: biochemical
Method: Analysis of BpsA reaction rate over a replicate two fold serial dilution series (0.78 μM-16 mM) of L-gln was conducted at both pH 7.8 (sodium phosphate) and 8.0 (Tris-Cl). […] As such the ΔA590 was expected to be directly proportional to the concentration of holo-BpsA present in a reaction. This assumption was experimentally verified by monitoring reaction velocity at ten different concentrations of holo-BpsA (360 nM-1.14 μM) at constant L-gln/ATP concentrations; as shown in FIG. 6C the relationship between enzyme concentration and velocity is linear within this range (R^2=0.989). Owing to the lack of an extinction co-efficient for indigoidine in water, coupled with formation of insoluble precipitate, we were unable to derive a kcat value for BpsA. We were however able to discern a reproducible maximum velocities which are expressed with the units ΔA590/s. These parameters were subsequently employed for the derivation of PPTase kinetics as outlined in section 4.11.
Pre-activation mix to bring about conversion of apo to holo BpsA contained 3.4 μM apo-BpsA, 0.25 μM PcpS, 10 mM MgCl2, 100 μM CoA and 50 mM buffer (sodium phosphate buffer pH 7.8 or Tris-Cl pH 8.0) and was incubated for 20 min at 30° C.
A590 measurements were then taken every 6-10 s for ten minutes using an envision EnSpire® microplate reader. The resulting data was visualized and velocities derived using the Slope function of Microsoft Excel®. Kinetic parameters were derived from velocity values using Graphpad Prism®. For examination of the relationship between BpsA concentration and reaction velocity, a triplicate two fold serial dilution series of pre-activated BpsA was established in a 96 wp in a final volume of 50 μL, 100 μl reaction mix without L-gln or ATP was then added to each well. […] A590 values were then recorded and data analysed as previously described.

[2] = BpsA indigoidine synthesis kinetics with respect to ATP (values used in PPTase unit conversion); format: biochemical
Source text: The raw data input into SigmaPlot for derivation of kinetic parameters for the PPTases PcpS and PP1183 was maximum change in indigoidine (ind) synthesis reaction rate (change in gradient per second) vs. concentration of CoA present in the reaction. The Vmax values given by SigmaPlot therefore had the units “Change in gradient per second” The assumptions made and calculations used to convert this standard enzyme kinetics units are given below. […] As such the assumption can be made that reaction rate for this enzyme is directly proportional to the concentration of active enzyme according to the equation:
For the reactions used in derivation of kinetic parameters of PPTases, [BpsA]=[E]=1.64 uM. [S]=[ATP]=1 mM.

[3] = BpsA coupled assay for PPTase kinetic parameters, CoA as variable substrate; format: biochemical; conditions: BpsA fixed at 0.83 μM
Source text: Having established a linear relationship between concentration of holo-BpsA and the apparent rate of indigoidine synthesis in aqueous solution, we next wanted to test whether it was possible to evaluate PPTase activity by using acceleration of the rate of indigoidine synthesis as a measure of the rate of 4′-PP attachment to apo-BpsA. Replicate solutions containing PPTase and all of the substrates necessary for both phosphopantetheinylation and indigoidine synthesis were established using a twofold serial dilution series of CoA (0.024-50 μM) in ninety six well plates. Reactions were initiated by addition of 0.83 μM BpsA each well of a dilution series, and absorbance at 590 nm was measured continuously. Under these conditions, the pigment synthesis reaction undergoes an initial acceleration phase as apo-BpsA is converted to holo-BpsA by the PPTase. […]
A590 values were then recorded as previously described. […] A590 values were then recorded as previously described. For derivation of PPTase velocity values, the slope between every 2-8 data points was measured across the entire data range with the resulting values forming a new data set (BpsA velocity). The slope between every 2-8 points in the BpsA velocity data set was then determined using the slope function of Microsoft Excel and the maximum value from the resulting data set for each reaction taken as a measure of PPTase velocity. […]

BpsA [4] = test: Qualitative PPTase activity in vivo by co-expression with a BpsA reporter in E. coli; format: cell-based, S. lavendulae ATCC 11924; conditions: E. coli BL21(DE3), auto-induction agar plates
Method: Single colonies of E. coli co-expressing BpsA and an activating PPTase were inoculated onto pigment production agar plate using a sterile pipette tip and incubated for 16 hours at 37° C. Protein expression was then induced by IPTG addition as described in Section 4.9.2 and the plate incubated for a further 24 h at room temperature (18-25° C.).
We constructed plasmids that allowed IPTG regulated co-expression of a candidate PPTase and BpsA in E. coli BL21(DE3). To enable IPTG regulated co-expression the BpsA gene of S. lavendulae ATCC 11924 was cloned into pCDFDUET-1 (Novagen) and three candidate PPTases into the (origin of replication compatible) vector pET28a(+). […] In contrast, if IPTG was absent from the medium viable co-transformed cells were recovered with good efficiency (not shown). […] In order to circumvent this problem we employed auto-induction agar plates, prepared by addition of 1.5% agar to Studier ZYP-5052 auto-induction medium (Studier 2005). Use of auto-induction agar plates allowed for both rapid growth and efficient induction of pigment production following extended incubation at room temperature.

BpsA [5] = molecular target: T1, BpsA (Streptomyces lavendulae, UniProt Q1MWN4); test: BpsA coupled assay for PPTase kinetic parameters, BpsA as variable substrate; format: biochemical, S. lavendulae ATCC 11924; conditions: CoA fixed at 25 μM
T1 construct: 6His; made in house; host or cells: E. coli
Source text: Having established a linear relationship between concentration of holo-BpsA and the apparent rate of indigoidine synthesis in aqueous solution, we next wanted to test whether it was possible to evaluate PPTase activity by using acceleration of the rate of indigoidine synthesis as a measure of the rate of 4′-PP attachment to apo-BpsA. […] Under these conditions, the pigment synthesis reaction undergoes an initial acceleration phase as apo-BpsA is converted to holo-BpsA by the PPTase. […]
A590 values were then recorded as previously described. […] A590 values were then recorded as previously described. For derivation of PPTase velocity values, the slope between every 2-8 data points was measured across the entire data range with the resulting values forming a new data set (BpsA velocity). The slope between every 2-8 points in the BpsA velocity data set was then determined using the slope function of Microsoft Excel and the maximum value from the resulting data set for each reaction taken as a measure of PPTase velocity. […] For fast reactions smaller increments could be used, however for slow reactions noise from plate reader noise became a significant factor in point to point variation and created artificial fluctuations in measured slopes if too few points were used in slope determination. […]

| Molecule | Km ([1]; NaPh pH 7.8, ATP 2.5 mM) | Vmax ([1]; NaPh pH 7.8, ATP 2.5 mM) | Km ([1]; Tris-Cl pH 8.0, ATP 2.5 mM) | Vmax ([1]; Tris-Cl pH 8.0, ATP 2.5 mM) | Km ([2]; ATP as substrate) | Kcat (BpsA) ([2]; value used for unit conversion of PPTase kinetics) | Km [3] | kcat [3] | Indigoidine production on co-expression with BpsA (BpsA [4]) | Km (BpsA [5]) | kcat (BpsA [5]) |
| --- | --- | --- | --- | --- | --- | --- | --- | --- | --- | --- | --- |
| BpsA: single module NRPS protein of S. lavendulae ATCC11924 that converts L-glutamine into indigoidine; SEQ ID NO: 3 (protein, listed as Streptomyces lavendulae) MTLQETSVLEPTLQGTTTLPGLLAQRVAEHPEAIAVAYRDDKLTFRELASRSAALADYLEHLGVSADDCVGLFVEPSIDLMVGAWGILNAGAAYLPLSPEYPEDRLRYMIENSETKIILAQQRLVSRLRELAPKDVTIVTLRESEAFVRPEGTEAPAARSARPDTLAYVIYTSGSTGKPKGVMIEHRSIVNQLGWLRETYAIDRSKVILQKTPMSFDAAQWEILSPANGATVVMGAPGVYADPEGLIETIVKHNVTTLQCVPTLLQGLIDTEKFPECVSLQQIFSGGEALSRLLAIQTTQEMPGRALINVYGPTETTINSSSFPVDPADLDEGPQSISIGSPVHGTTYHILDKETLKPVGVGEIGELYIGGIQLARGYLHRDDLTAERFLEIELEEGAEPVRLYKTGDLGQWNNDGTVQFAGRADNQVKLRGYRVELDEISLAIENHDWVRNAAVIVKNDGRTGFQNLIACIELSEKEAALMDQGNHGSHHASKKSKLQVKAQLSNPGLRDDAELAARPAFDLEGAEPTPEQRARVFARKTYRFYEGGAVTQADLLGLLGATVTAGYSRKAADLAPAELGQILRWFGQYISEERLLPKYGYASPGALYATQMYFELEGVGGLKPGYYYYQPVRHQLVLISEREATGKATAQIHFIGKKSGIEPVYKNNILEVLEIETGHMVGLFEQILPAYGLDIHDRAYEPAVKDLLDVADEDYYLGTFELVPHAGARDDQAEVYVQTHGGKVAGLPEGQYRYENGELTRFSDDIVLKKHVIAINQSVYQAASFGISVYSRAEEEWLKYITLGKKLQHLMMNGLNLGFMSSGYSSKTGNPLPASRRMDAVLGANGVDSAPMYFFVGGRISDEQIGHEGMREDSVHMRGPAELIRDDLVSFLPDYMIPNRVVVFDRLPLSANGKIDVKALAASDQVNAELVERPFVAPRTETEKEIAAVWEKALRRENASVQDDFFESGGNSLIAVGLVRELNARLGVSLPLQSVLESPTIEKLARRLEREVAQESSRFVRLHAETGKARPVICWPGLGGYPMNLRSLAGEIGLGRSFYGVQSYGINEGETPYETITEMAKKDIEALKEIQPAGPYTLWGYSFGARVAFETAYQLEQAGEKVDNLFLIAPGSPKVRAENGKVWGREASFANRGYTTILFSVFTGTISGPDLDRCLETVTDEASFAEFISELKGIDVDLARRIISVVGQTYEFEYSFHELAERTLQAPISIFKAVGDDYSFLENSSGYSAEPPTVIDLDADHYSLLREDIGELVKHIRYLLGE | 2430 µM | 1.8 +/− 0.03 (ΔA590 · S^−1 · μM^−1) × 10^−2 | 3330 µM | 6.5 +/− 0.1 (ΔA590 · S^−1 · μM^−1) × 10^−2 | 11100 µM | 4.0223 s⁻¹ | – | – | – | – | – |
| Sfp: PPTase of B. subtilis subsp. spizizenii ATCC6633 (protein, UniProt P39135 1-224, looked up) 4'-phosphopantetheinyl …: MKIYGIYMDRPLSQEENERFMSFISPEKREKCRRFYHKEDAHRTLLGDVLVRSVISRQYQLDKSDIRFSTQEYGKPCIPDLPDAHFNISHSGRWVICAFDSQPIGIDIEKTKPISLEIAKRFFSKTEYSDLLAKDKDEQTDYFYHLWSMKESFIKQEGKGLSLPLDSFSVRLHQDGQVSIELPDSHSPCYIKTYEVDPGYKMAVCAAHPDFPEDITMVSYEELL | – | – | – | – | – | – | 0.62 µM | 0.00213 ± 6.7e-05 s⁻¹ | substantial production of indigoidine | 3.3 µM | 0.0357 ± 0.00067 s⁻¹ |

Reference: patent US20130260436A1, “Methods of Identifying and Characterizing Natural Product Gene Clusters” (Victoria LInk Limited, priority 2010, published 2013)
